Data taken from article PMC5473807, “Distribution and kinetics of the Kv1.3-blocking peptide HsTX1[R14A] in experimental rats” (Scientific Reports, 2017).
Like-named read-outs stand apart in the source and are kept apart here.

Assay: In vivo biodistribution by organ and tissue extraction
Parameters: species or system male Wistar rats
Conditions: male, Wistar, total radioactivity, rat; for SUV at 48 h / tissue uptake dose at 48 h: 2880 min p.i.; for SUV at 1 h / tissue uptake dose at 1 h: 60 min p.i.; for tissue uptake dose at 5 min / SUV at 5 min: 5 min p.i.; for dose excreted at 24 h: kidney and urine, read-out: renal elimination
Method: The present study includes data obtained from a total of 50 animals. Four animals (body weight 227 ± 10 g) for each time point were injected intravenously into a tail vein or subcutaneously with approximately 0.3 MBq ([…]) [^64Cu]Cu-NOTA-HsTX1[R14A] conjugate in 0.5 mL electrolyte solution E-153 (Serumwerk Bernburg, Germany). Animals were euthanised at 5, 60, 240, 1440 and 2880 min post-injection. Blood and the major organs were collected, weighed, and counted in a cross-calibrated γ-counter (Isomed 1000, Isomed GmbH, Dresden) and Wallac WIZARD Automatic Gamma Counter (PerkinElmer, Germany). The radioactivity of the tissue samples was decay-corrected and calibrated by comparing the counts in tissue with the counts in aliquots of the injected radiotracer that had been measured in the γ-counter at the same time. The activity in the selected organs was expressed as percent-injected dose per organ (% ID) and the activity concentration in tissues and organs as standardised uptake value (SUV). Values are quoted as mean ± standard error of mean (SEM) for each group of four animals.

[1] = femur, sc, 0.3 MBq, s.c., mean ± SD, n=4, read-out: Femur SUV
[2] = femur, sc, 0.3 MBq, s.c., mean ± SD, n=4, read-out: Femur activity amount
[3] = heart, iv, 0.3 MBq, i.v., mean ± SD, n=4, read-out: Heart activity amount
[4] = heart, iv, i.v., mean ± SD, n=4, read-out: Heart SUV
[5] = heart, sc, 0.3 MBq, s.c., mean ± SD, n=4, read-out: Heart activity amount
[6] = heart, sc, s.c., mean ± SD, n=4, read-out: Heart SUV
[7] = intestine, iv, 0.3 MBq, i.v., mean ± SD, n=4, read-out: Intestine activity amount
[8] = intestine, sc, 0.3 MBq, s.c., mean ± SD, n=4, read-out: Intestine activity amount
[9] = kidneys, iv, 0.3 MBq, i.v., mean ± SD, n=4, read-out: Kidneys SUV
[10] = kidneys, iv, 0.3 MBq, i.v., mean ± SD, n=4, read-out: Kidneys activity amount
[11] = kidneys, sc, 0.3 MBq, s.c., mean ± SD, n=4, read-out: Kidneys SUV
[12] = kidneys, sc, 0.3 MBq, s.c., mean ± SD, n=4, read-out: Kidneys activity amount
[13] = liver, iv, 0.3 MBq, i.v., mean ± SD, n=4, read-out: Liver SUV
[14] = liver, iv, 0.3 MBq, i.v., mean ± SD, n=4, read-out: Liver activity amount
[15] = liver, sc, 0.3 MBq, s.c., mean ± SD, n=4, read-out: Liver SUV

CSCC[C@@H]1NC(=O)[C@@H]2CSSC[C@H](NC(=O)[C@H](CO)NC(=O)[C@H](C)NC(=O)COCCOCCNC(=O)CN3CCN(CC(=O)O)CCN(CC(=O)O)CC3)C(=O)N[C@@H](CCCNC(=N)N)C(=O)N[C@@H]([C@@H](C)O)C(=O)N3CCC[C@H]3C(=O)N[C@@H](CCCCN)C(=O)N[C@@H](CC(=O)O)C(=O)N[C@H]3CSSC[C@H](NC(=O)[C@H](CCCCN)NC(=O)[C@H](CCCNC(=N)N)NC(=O)[C@H](CC(N)=O)NC1=O)C(=O)N[C@@H](CCCCN)C(=O)N[C@H]1CSSC[C@H](NC(=O)[C@@H]4CCCN4C(=O)[C@H](CC(=O)O)NC(=O)[C@H](C)NC3=O)C(=O)N[C@@H](C)C(=O)N[C@@H](CCCCN)C(=O)N[C@@H](CCC(=O)O)C(=O)N[C@@H]([C@@H](C)O)C(=O)NCC(=O)N[C@@H](CSSC[C@@H](C(N)=O)NC(=O)[C@H](CCCNC(=N)N)NC(=O)[C@H](CC(N)=O)NC1=O)C(=O)N1CCC[C@H]1C(=O)N[C@@H](Cc1ccc(O)cc1)C(=O)NCC(=O)N[C@@H](CCCCN)C(=O)N2 [[^64Cu]Cu-NOTA-HsTX1[R14A], metal not drawn]
SUV at 48 h (femur, iv, 0.3 MBq, i.v., mean ± SD, n=4, read-out: Femur SUV): 0.39 ± 0.02 SUV
tissue uptake dose at 48 h (femur, iv, 0.3 MBq, i.v., mean ± SD, n=4, read-out: Femur activity amount): 0.23 ± 0.01 %ID
SUV at 1 h [1]: 1.25 ± 0.07 SUV
tissue uptake dose at 1 h [2]: 0.82 ± 0.04 %ID
SUV at 4 h (femur, sc, 0.3 MBq, s.c., 240 min p.i., mean ± SD, n=4, read-out: Femur SUV): 0.92 ± 0.08 SUV
tissue uptake dose at 4 h (femur, sc, 0.3 MBq, s.c., 240 min p.i., mean ± SD, n=4, read-out: Femur activity amount): 0.64 ± 0.02 %ID
SUV at 24 h (femur, sc, 0.3 MBq, s.c., 1440 min p.i., mean ± SD, n=4, read-out: Femur SUV): 0.47 ± 0.02 SUV
tissue uptake dose at 24 h (femur, sc, 0.3 MBq, s.c., 1440 min p.i., mean ± SD, n=4, read-out: Femur activity amount): 0.34 ± 0.01 %ID
SUV at 48 h [1]: 0.34 ± 0.02 SUV
tissue uptake dose at 48 h [2]: 0.19 ± 0.02 %ID
tissue uptake dose at 5 min [3]: 0.33 ± 0.04 %ID
tissue uptake dose at 1 h (heart, iv, 0.3 MBq, i.v., mean ± SD, n=8, read-out: Heart activity amount): 0.21 ± 0.06 %ID
tissue uptake dose at 4 h (heart, iv, 0.3 MBq, i.v., 240 min p.i., mean ± SD, n=4, read-out: Heart activity amount): 0.19 ± 0.03 %ID
tissue uptake dose at 24 h (heart, iv, 0.3 MBq, i.v., 1440 min p.i., mean ± SD, n=8, read-out: Heart activity amount): 0.23 ± 0.02 %ID
tissue uptake dose at 48 h [3]: 0.27 ± 0.04 %ID
SUV at 5 min [4]: 1.04 ± 0.14 SUV
SUV at 1 h (heart, iv, i.v., mean ± SD, n=8, read-out: Heart SUV): 0.53 ± 0.08 SUV
SUV at 4 h (heart, iv, i.v., 240 min p.i., mean ± SD, n=4, read-out: Heart SUV): 0.4 ± 0.07 SUV
SUV at 24 h (heart, iv, i.v., 1440 min p.i., mean ± SD, n=8, read-out: Heart SUV): 0.62 ± 0.07 SUV
SUV at 48 h [4]: 0.64 ± 0.06 SUV
tissue uptake dose at 1 h [5]: 0.32 ± 0.02 %ID
tissue uptake dose at 4 h (heart, sc, 0.3 MBq, s.c., 240 min p.i., mean ± SD, n=4, read-out: Heart activity amount): 0.18 ± 0.03 %ID
tissue uptake dose at 24 h (heart, sc, 0.3 MBq, s.c., 1440 min p.i., mean ± SD, n=4, read-out: Heart activity amount): 0.23 ± 0.01 %ID
tissue uptake dose at 48 h [5]: 0.22 ± 0.01 %ID
SUV at 1 h [6]: 0.7 ± 0.03 SUV
SUV at 4 h (heart, sc, s.c., 240 min p.i., mean ± SD, n=4, read-out: Heart SUV): 0.41 ± 0.06 SUV
SUV at 24 h (heart, sc, s.c., 1440 min p.i., mean ± SD, n=4, read-out: Heart SUV): 0.53 ± 0.02 SUV
SUV at 48 h [6]: 0.57 ± 0.04 SUV
tissue uptake dose at 5 min [7]: 3.59 ± 2.4 %ID
tissue uptake dose at 1 h (intestine, iv, 0.3 MBq, i.v., mean ± SD, n=8, read-out: Intestine activity amount): 5.3 ± 2.31 %ID
tissue uptake dose at 4 h (intestine, iv, 0.3 MBq, i.v., 240 min p.i., mean ± SD, n=4, read-out: Intestine activity amount): 4.61 ± 1.84 %ID
tissue uptake dose at 24 h (intestine, iv, 0.3 MBq, i.v., 1440 min p.i., mean ± SD, n=8, read-out: Intestine activity amount): 16.5 ± 2.32 %ID
tissue uptake dose at 48 h [7]: 8.27 ± 1.01 %ID
tissue uptake dose at 1 h [8]: 7.85 ± 3.82 %ID
tissue uptake dose at 4 h (intestine, sc, 0.3 MBq, s.c., 240 min p.i., mean ± SD, n=4, read-out: Intestine activity amount): 4.65 ± 1.73 %ID
tissue uptake dose at 24 h (intestine, sc, 0.3 MBq, s.c., 1440 min p.i., mean ± SD, n=4, read-out: Intestine activity amount): 19.3 ± 1.35 %ID
tissue uptake dose at 48 h [8]: 8.16 ± 1.02 %ID
dose excreted at 24 h (iv, 0.3 MBq, i.v., one day after injection): 48 ± 3%
dose excreted at 24 h (sc, 0.3 MBq, s.c., one day after injection): 51 ± 2%
SUV at 5 min [9]: 35.1 ± 6.82 SUV
tissue uptake dose at 5 min [10]: 23.9 ± 3.93 %ID
SUV at 1 h (kidneys, iv, 0.3 MBq, i.v., mean ± SD, n=8, read-out: Kidneys SUV): 78.4 ± 13.6 SUV
tissue uptake dose at 1 h (kidneys, iv, 0.3 MBq, i.v., mean ± SD, n=8, read-out: Kidneys activity amount): 61.6 ± 4.21 %ID
SUV at 4 h (kidneys, iv, 0.3 MBq, i.v., 240 min p.i., mean ± SD, n=4, read-out: Kidneys SUV): 68.4 ± 4.28 SUV
tissue uptake dose at 4 h (kidneys, iv, 0.3 MBq, i.v., 240 min p.i., mean ± SD, n=4, read-out: Kidneys activity amount): 63.1 ± 0.97 %ID
SUV at 24 h (kidneys, iv, 0.3 MBq, i.v., 1440 min p.i., mean ± SD, n=8, read-out: Kidneys SUV): 18 ± 5.32 SUV
tissue uptake dose at 24 h (kidneys, iv, 0.3 MBq, i.v., 1440 min p.i., mean ± SD, n=8, read-out: Kidneys activity amount): 14.2 ± 2.04 %ID
SUV at 48 h [9]: 6.37 ± 0.59 SUV
tissue uptake dose at 48 h [10]: 6.19 ± 0.49 %ID
SUV at 1 h [11]: 58.1 ± 5.55 SUV
tissue uptake dose at 1 h [12]: 53.3 ± 4.9 %ID
SUV at 4 h (kidneys, sc, 0.3 MBq, s.c., 240 min p.i., mean ± SD, n=4, read-out: Kidneys SUV): 70.2 ± 4.14 SUV
tissue uptake dose at 4 h (kidneys, sc, 0.3 MBq, s.c., 240 min p.i., mean ± SD, n=4, read-out: Kidneys activity amount): 62.5 ± 2.36 %ID
SUV at 24 h (kidneys, sc, 0.3 MBq, s.c., 1440 min p.i., mean ± SD, n=4, read-out: Kidneys SUV): 14.4 ± 1.32 SUV
tissue uptake dose at 24 h (kidneys, sc, 0.3 MBq, s.c., 1440 min p.i., mean ± SD, n=4, read-out: Kidneys activity amount): 13.6 ± 1.1 %ID
SUV at 48 h [11]: 5.98 ± 1.08 SUV
tissue uptake dose at 48 h [12]: 4.95 ± 0.49 %ID
tissue uptake dose at 4 h (liver and intestine, iv, 0.3 MBq, i.v., 4 h, read-out: activity in the liver and intestine): 12 ± 3 %ID
tissue uptake dose at 24 h (liver and intestine, iv, 0.3 MBq, i.v., one day after injection, read-out: hepatobiliary elimination, maximum): 31 ± 3 %ID
tissue uptake dose at 4 h (liver and intestine, sc, 0.3 MBq, s.c., 4 h, read-out: activity in the liver and intestine): 11.4 ± 4 %ID
tissue uptake dose at 24 h (liver and intestine, sc, 0.3 MBq, s.c., one day after injection, read-out: hepatobiliary elimination, maximum): 30 ± 3 %ID
SUV at 5 min [13]: 1.02 ± 0.53 SUV
tissue uptake dose at 5 min [14]: 4.6 ± 2.22 %ID
SUV at 1 h (liver, iv, 0.3 MBq, i.v., mean ± SD, n=8, read-out: Liver SUV): 1.24 ± 0.31 SUV
tissue uptake dose at 1 h (liver, iv, 0.3 MBq, i.v., mean ± SD, n=8, read-out: Liver activity amount): 5.43 ± 1.44 %ID
SUV at 4 h (liver, iv, 0.3 MBq, i.v., 240 min p.i., mean ± SD, n=4, read-out: Liver SUV): 1.78 ± 0.45 SUV
tissue uptake dose at 4 h (liver, iv, 0.3 MBq, i.v., 240 min p.i., mean ± SD, n=4, read-out: Liver activity amount): 7.01 ± 1.47 %ID
SUV at 24 h (liver, iv, 0.3 MBq, i.v., 1440 min p.i., mean ± SD, n=8, read-out: Liver SUV): 2.93 ± 0.78 SUV
tissue uptake dose at 24 h (liver, iv, 0.3 MBq, i.v., 1440 min p.i., mean ± SD, n=8, read-out: Liver activity amount): 14.8 ± 2.42 %ID
SUV at 48 h [13]: 1.45 ± 0.13 SUV
tissue uptake dose at 48 h [14]: 8.35 ± 0.95 %ID
SUV at 1 h [15]: 1.13 ± 0.23 SUV
tissue uptake dose at 1 h (liver, sc, 0.3 MBq, s.c., mean ± SD, n=4, read-out: Liver activity amount): 4.44 ± 0.74 %ID
SUV at 4 h (liver, sc, 0.3 MBq, s.c., 240 min p.i., mean ± SD, n=4, read-out: Liver SUV): 1.75 ± 0.63 SUV
tissue uptake dose at 4 h (liver, sc, 0.3 MBq, s.c., 240 min p.i., mean ± SD, n=4, read-out: Liver activity amount): 6.79 ± 2.27 %ID
SUV at 24 h (liver, sc, 0.3 MBq, s.c., 1440 min p.i., mean ± SD, n=4, read-out: Liver SUV): 2.23 ± 0.32 SUV
tissue uptake dose at 24 h (liver, sc, 0.3 MBq, s.c., 1440 min p.i., mean ± SD, n=4, read-out: Liver activity amount): 11.1 ± 1.82 %ID
SUV at 48 h [15]: 1.4 ± 0.08 SUV
